In this experiment the target is EGFR kinase domain (UniProt P00533 696-1022, fluorescent dye attached through the His-tag). Nature of the experiment: MST.

B1: Sorting Nexin 1 (SNX1) Bar domain (other)
chain: MNESDIWFEEKLQEVECEEQRLRKLHAVVETLVNHRKELALNTAQFAKSLAMLGSSEDNTALSRALSQLAEVEEKIEQLHQEQANNDFFLLAELLSDYIRLLAIVRAAFDQRMKTWQRWQDAQATLQKKREAEARLLWANKPDKLQQAKDEILEWESRVTQYERDFERISTVVRKEVIRFEKEKSKDFKNHVIKYLETLLYSQQQLAKYWEAFLPEAKAIS
For orientation: Kd means the equilibrium constant for the complex coming apart. Lower therefore signals tighter binding. Molecule B1 yielded a Kd of 2900 nM.

Values taken from patent US20240166702A1 (published 2024).
